Measurements published in the Human Domainome abundance scans (Beltran et al. 2025).
± gives the uncertainty stated by the source.

B1: Cullin-9, residues 2234 to 2275; numbered along this chain, Q8IWT3 (parent)
chain: KRCPSCQAPIEKNEGCLHMTCAKCNHGFCWRCLKSWKPNHKD
B2: POU domain, class 4, transcription factor 3, residues 185 to 256; numbered along this chain, Q15319 (parent)
chain: RELEAFAERFKQRRIKLGVTQADVGAALANLKIPGVGSLSQSTICRFESLTLSHNNMIALKPVLQAWLEEAE

Variants of: B1
Assay: abundance fitness (aPCA) (normalised: wild type 0, dead -1); higher = more abundant; growth selection in yeast, the domain comes from the species named
Settings: Homo sapiens
A8I gave an abundance fitness of -0.341 ± 0.27.
For W30G, the abundance fitness was 0.162 ± 0.07.
With E14A the abundance fitness was -0.001 ± 0.087.
In the case of C3P, the abundance fitness is reported as -0.945 ± 0.13.
Variant N39W has an abundance fitness of -0.176 ± 0.087.
Variant P9V has an abundance fitness of -0.277 ± 0.098.
P9D showed an abundance fitness of -0.267 ± 0.42.
In the case of K1Y, the abundance fitness is reported as 0.038 ± 0.38.
R31D gave an abundance fitness of 0.119 ± 0.11.
Work on R31H yielded an abundance fitness of 0.078 ± 0.15.
Variant S35V has an abundance fitness of -0.132 ± 0.079.
S35Q showed an abundance fitness of 0.068 ± 0.12.
H26I showed an abundance fitness of -0.367 ± 0.2.
Work on E11W yielded an abundance fitness of -0.069 ± 0.14.
C16H gave an abundance fitness of 0.105 ± 0.14.
C16T gave an abundance fitness of 0.471 ± 0.11.

Variants of: B2
Assay: as above
Settings: Homo sapiens
Work on R1K yielded an abundance fitness of -0.226 ± 0.11.
For R1F, the abundance fitness was -0.142 ± 0.092.
Variant R1G has an abundance fitness of 0.002 ± 0.041.
R1C showed an abundance fitness of -0.229 ± 0.065.
R1S showed an abundance fitness of -0.109 ± 0.084.
Variant R1T has an abundance fitness of -0.133 ± 0.13.
R1D gave an abundance fitness of -0.419 ± 0.17.
Work on R1N yielded an abundance fitness of -0.153 ± 0.2.
With R1A the abundance fitness was -0.282 ± 0.14.
For R1L, the abundance fitness was -0.125 ± 0.049.
With R1W the abundance fitness was -0.164 ± 0.052.
Variant R1M has an abundance fitness of -0.08 ± 0.1.
With R1E the abundance fitness was -0.093 ± 0.1.
E4R gave an abundance fitness of 0.041 ± 0.11.
In the case of E4M, the abundance fitness is reported as 0.01 ± 0.11.
With E4W the abundance fitness was -0.222 ± 0.043.
Variant E4I has an abundance fitness of 0.113 ± 0.077.
Work on E4N yielded an abundance fitness of -0.11 ± 0.096.
E4C showed an abundance fitness of -0.17 ± 0.061.
For E4Y, the abundance fitness was -0.125 ± 0.07.
In the case of E4L, the abundance fitness is reported as -0.214 ± 0.064.
Variant E4F has an abundance fitness of 0.03 ± 0.055.
E4K gave an abundance fitness of -0.125 ± 0.11.
For E4G, the abundance fitness was -0.197 ± 0.033.
In the case of L3N, the abundance fitness is reported as -0.605 ± 0.12.
Variant L3Q has an abundance fitness of -0.227 ± 0.13.
Variant L3Y has an abundance fitness of -0.192 ± 0.1.
Variant L3T has an abundance fitness of -0.109 ± 0.18.
Work on L3K yielded an abundance fitness of -0.482 ± 0.083.
With L3V the abundance fitness was 0.074 ± 0.13.
Variant L3M has an abundance fitness of -0.261 ± 0.093.
Work on L3E yielded an abundance fitness of -0.395 ± 0.33.
For L3S, the abundance fitness was -0.359 ± 0.36.
For L3I, the abundance fitness was 0.065 ± 0.07.
Variant F6L has an abundance fitness of -0.221 ± 0.25.
With F6Y the abundance fitness was -0.118 ± 0.26.
In the case of F6K, the abundance fitness is reported as -1.03 ± 0.42.
With F6C the abundance fitness was -0.731 ± 0.25.
Variant F6D has an abundance fitness of -0.293 ± 0.28.
For F6S, the abundance fitness was -0.338 ± 0.3.
F6M gave an abundance fitness of -0.327 ± 0.25.
Variant F6V has an abundance fitness of -0.701 ± 0.17.
In the case of Q12T, the abundance fitness is reported as -0.113 ± 0.056.
Q12Y showed an abundance fitness of 0.121 ± 0.24.
For Q12M, the abundance fitness was -0.034 ± 0.048.
Q12D showed an abundance fitness of 0.012 ± 0.17.
Q12L showed an abundance fitness of -0.066 ± 0.032.
Q12I showed an abundance fitness of -0.172 ± 0.089.
Variant Q12A has an abundance fitness of 0.006 ± 0.095.
With Q12G the abundance fitness was -0.377 ± 0.2.
In the case of Q12S, the abundance fitness is reported as -0.083 ± 0.047.
With Q12R the abundance fitness was -0.187 ± 0.068.
Variant Q12N has an abundance fitness of 0.189 ± 0.12.
Work on Q12K yielded an abundance fitness of -0.115 ± 0.062.
Variant Q12P has an abundance fitness of -1.02 ± 0.17.
Work on Q12E yielded an abundance fitness of 0.07 ± 0.31.
A7N gave an abundance fitness of -0.927 ± 0.27.
A7Q showed an abundance fitness of -0.689 ± 0.061.
With A7W the abundance fitness was -0.817 ± 0.049.
With A7P the abundance fitness was -0.579 ± 0.042.
For A7M, the abundance fitness was -0.784 ± 0.13.
A7L showed an abundance fitness of -0.581 ± 0.034.
With A7K the abundance fitness was -0.398 ± 0.2.
In the case of A7E, the abundance fitness is reported as -0.893 ± 0.082.
For A7T, the abundance fitness was -0.235 ± 0.063.
A7V showed an abundance fitness of 0.039 ± 0.029.
For A7Y, the abundance fitness was -0.725 ± 0.18.
Work on A7C yielded an abundance fitness of -0.124 ± 0.055.
A7I gave an abundance fitness of -0.083 ± 0.2.
Variant A7R has an abundance fitness of -0.695 ± 0.032.
Variant A7H has an abundance fitness of -0.707 ± 0.099.
In the case of A7G, the abundance fitness is reported as -0.646 ± 0.031.
A7F gave an abundance fitness of -0.649 ± 0.1.
In the case of A7D, the abundance fitness is reported as -0.953 ± 0.22.
For E8I, the abundance fitness was 0 ± 0.12.
In the case of E8Y, the abundance fitness is reported as -0.236 ± 0.13.
In the case of E8W, the abundance fitness is reported as -0.2 ± 0.051.
In the case of E8G, the abundance fitness is reported as -0.098 ± 0.051.
For E8F, the abundance fitness was -0.005 ± 0.12.
Work on E8N yielded an abundance fitness of -0.434 ± 0.35.
E8C showed an abundance fitness of -0.212 ± 0.071.
E8P showed an abundance fitness of -0.698 ± 0.19.
Variant E8Q has an abundance fitness of 0.073 ± 0.091.
With E8S the abundance fitness was -0.033 ± 0.055.
In the case of E8D, the abundance fitness is reported as -0.05 ± 0.14.
E8M showed an abundance fitness of -0.003 ± 0.059.
E8T showed an abundance fitness of 0.053 ± 0.065.
E8A showed an abundance fitness of 0.022 ± 0.081.
R13E showed an abundance fitness of -0.075 ± 0.066.
With R13H the abundance fitness was 0.151 ± 0.13.
R13F gave an abundance fitness of -0.247 ± 0.055.
With R13I the abundance fitness was 0.05 ± 0.12.
With R13A the abundance fitness was -0.01 ± 0.055.
R13D showed an abundance fitness of -0.234 ± 0.12.
In the case of R13C, the abundance fitness is reported as -0.265 ± 0.043.
A5F showed an abundance fitness of -0.605 ± 0.21.
A5R showed an abundance fitness of -0.121 ± 0.19.
Variant A5W has an abundance fitness of -0.379 ± 0.14.
A5V showed an abundance fitness of -0.051 ± 0.096.
Work on A5E yielded an abundance fitness of -0.155 ± 0.26.
With A5Q the abundance fitness was 0.08 ± 0.15.
Work on A5L yielded an abundance fitness of 0.019 ± 0.065.
Work on A5S yielded an abundance fitness of -0.002 ± 0.19.
A5M gave an abundance fitness of 0.109 ± 0.099.
Variant A5G has an abundance fitness of -0.033 ± 0.085.
Work on A5T yielded an abundance fitness of -0.002 ± 0.23.
In the case of A5C, the abundance fitness is reported as -0.552 ± 0.3.
In the case of K11H, the abundance fitness is reported as -0.1 ± 0.17.
For K11P, the abundance fitness was -0.751 ± 0.37.
In the case of K11E, the abundance fitness is reported as -0.945 ± 0.3.
With K11F the abundance fitness was -0.478 ± 0.063.
K11Q gave an abundance fitness of -0.136 ± 0.091.
K11Y gave an abundance fitness of -0.474 ± 0.077.
For K11I, the abundance fitness was -0.123 ± 0.055.
For K11L, the abundance fitness was -0.449 ± 0.037.
With K11V the abundance fitness was -0.186 ± 0.12.
Variant K11S has an abundance fitness of -0.208 ± 0.054.
For K11N, the abundance fitness was -0.88 ± 0.24.
Variant K11T has an abundance fitness of -0.276 ± 0.097.
For K11M, the abundance fitness was -0.125 ± 0.049.
In the case of R9S, the abundance fitness is reported as 0.007 ± 0.083.
R9C showed an abundance fitness of -0.141 ± 0.1.
R9M gave an abundance fitness of 0.111 ± 0.045.
In the case of R9F, the abundance fitness is reported as -0.33 ± 0.039.
R9I showed an abundance fitness of -0.192 ± 0.084.
Work on R9A yielded an abundance fitness of -0.045 ± 0.077.
In the case of R9P, the abundance fitness is reported as -0.642 ± 0.48.
With R9W the abundance fitness was -0.146 ± 0.1.
R9N showed an abundance fitness of -0.016 ± 0.1.
In the case of R9Y, the abundance fitness is reported as -0.025 ± 0.091.
Variant R9K has an abundance fitness of 0.022 ± 0.047.
Work on R9T yielded an abundance fitness of 0.016 ± 0.054.
For R9H, the abundance fitness was -0.018 ± 0.1.
R9G gave an abundance fitness of -0.198 ± 0.13.
Work on R9E yielded an abundance fitness of 0.033 ± 0.075.
For E2N, the abundance fitness was -0.207 ± 0.14.
In the case of E2Y, the abundance fitness is reported as -0.686 ± 0.21.
With E2L the abundance fitness was -0.421 ± 0.04.
Variant E2H has an abundance fitness of -0.221 ± 0.17.
In the case of E2P, the abundance fitness is reported as -0.345 ± 0.13.
Variant E2K has an abundance fitness of -0.121 ± 0.26.
E2M gave an abundance fitness of -0.437 ± 0.13.
E2D gave an abundance fitness of 0.075 ± 0.03.
E2I gave an abundance fitness of -0.664 ± 0.37.
With F10R the abundance fitness was -0.653 ± 0.33.
Work on F10M yielded an abundance fitness of -0.881 ± 0.3.
In the case of F10V, the abundance fitness is reported as -0.765 ± 0.1.
In the case of F10W, the abundance fitness is reported as -0.287 ± 0.09.
Variant F10G has an abundance fitness of -1.03 ± 0.068.
For F10I, the abundance fitness was -0.813 ± 0.3.
F10L showed an abundance fitness of -0.697 ± 0.27.
